Experimental data as given in article PMC4521160, “Glass is a Viable Substrate for Precision Force Microscopy of Membrane Proteins” (Scientific Reports, 2015).
Values belong to the binder of their own block, whether it stands above or below them.

Columns and labels:
[1] = biological target: T1, bacteriorhodopsin from Halobacterium salinarum (Halobacterium salinarum), P02945; assay: atomic force microscopy (AFM) imaging; purple membrane on KOH-treated glass (20 mM Tris pH ~8.5, 200 mM KCl, 20 mM MgCl2) and on mica (10 mM Tris pH ~7.6, 150 mM KCl); tapping mode, ~30 °C; correlation averaging; settings: remark: other sources report otherwise
T1 chain: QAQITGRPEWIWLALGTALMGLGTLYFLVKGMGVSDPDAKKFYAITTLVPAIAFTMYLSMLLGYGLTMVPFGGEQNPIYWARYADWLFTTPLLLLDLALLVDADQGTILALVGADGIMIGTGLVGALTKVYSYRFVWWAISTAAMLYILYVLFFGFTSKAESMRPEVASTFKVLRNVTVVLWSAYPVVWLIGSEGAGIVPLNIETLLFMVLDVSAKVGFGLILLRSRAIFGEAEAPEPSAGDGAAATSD

ATPase SecA = biological target: T2, ATPase SecA (E. coli, UniProt P10408 1-901); assay: atomic force microscopy (AFM) imaging; proteoliposomes of coassembled SecYEG and SecA deposited on KOH-treated glass (height histograms also on mica); tapping mode, ~30 °C, 10 mM HEPES pH 8.0, 200 mM KAc, 5 mM MgAc2; single translocons tracked for >1800 s; settings: both partners purified
T2 construct: SecA, ATPase of the general secretory system of E. coli; SecA was added for coassembly 'at 5 μM dimer'; Zinc is kept in SecA by the purification; also called peripheral membrane protein SecA; source: purified from the supernatant of lysed cells (QAE column)
T2 sequence (P10408 whole entry): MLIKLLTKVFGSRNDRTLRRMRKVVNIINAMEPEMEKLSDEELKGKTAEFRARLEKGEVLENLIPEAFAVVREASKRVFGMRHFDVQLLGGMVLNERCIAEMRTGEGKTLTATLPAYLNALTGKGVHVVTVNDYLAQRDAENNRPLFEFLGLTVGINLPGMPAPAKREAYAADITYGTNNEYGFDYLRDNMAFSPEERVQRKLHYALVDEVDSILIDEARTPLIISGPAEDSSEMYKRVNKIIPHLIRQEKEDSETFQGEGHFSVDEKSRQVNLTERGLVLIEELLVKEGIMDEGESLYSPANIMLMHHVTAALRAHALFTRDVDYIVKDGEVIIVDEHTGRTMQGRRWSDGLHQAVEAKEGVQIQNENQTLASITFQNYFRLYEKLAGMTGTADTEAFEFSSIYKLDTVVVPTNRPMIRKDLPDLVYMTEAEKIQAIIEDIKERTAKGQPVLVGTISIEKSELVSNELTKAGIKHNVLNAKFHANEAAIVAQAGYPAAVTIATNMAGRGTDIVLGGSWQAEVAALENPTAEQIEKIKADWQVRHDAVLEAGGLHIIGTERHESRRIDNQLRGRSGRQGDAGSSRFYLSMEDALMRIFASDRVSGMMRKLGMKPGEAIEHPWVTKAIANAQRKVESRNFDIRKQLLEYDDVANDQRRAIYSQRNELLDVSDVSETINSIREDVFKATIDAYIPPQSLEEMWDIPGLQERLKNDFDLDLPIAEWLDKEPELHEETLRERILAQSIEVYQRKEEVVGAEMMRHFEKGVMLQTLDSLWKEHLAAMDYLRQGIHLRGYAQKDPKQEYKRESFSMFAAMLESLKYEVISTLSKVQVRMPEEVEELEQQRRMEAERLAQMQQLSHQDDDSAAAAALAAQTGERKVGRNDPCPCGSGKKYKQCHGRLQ

- stoichiometry N [1]: 3
B1: bacteriorhodopsin from Halobacterium salinarum, P02945 14-262 (natural protein)
chain: T1 chain
modifications: here or on the partner: retinal chromophore; retinal chromophore

- binding result (ATPase SecA): binds
B2: SecYEG translocon from Escherichia coli (complex, E. coli)
chain 1: MAKQPGLDFQSAKGGLGELKRRLLFVIGALIVFRIGSFIPIPGIDAAVLAKLLEQQRGTIIEMFNMFSGGALSRASIFALGIMPYISASIIIQLLTVVHPTLAEIKKEGESGRRKISQYTRYGTLVLAIFQSIGIATGLPNMPGMQGLVINPGFAFYFTAVVSLVTGTMFLMWLGEQITERGIGNGISIIIFAGIVAGLPPAIAHTIEQARQGDLHFLVLLLVAVLVFAVTFFVVFVERGQRRIVVNYAKRQQGRRVYAAQSTHLPLKVNMAGVIPAIFASSIILFPATIASWFGGGTGWNWLTTISLYLQPGQPLYVLLYASAIIFFSFFYTALVFNPRETADNLKKSGAFVPGIRPGEQTAKYIDKVMTRLTLVGALYITFISLIPEFMRDAMKVPFYFGGTSLLIVVVVIMDFMAQVQTLMMSSQYESALKKANLKGYGR
chain 2: MSANTEAQGSGRGLEAMKWVVVVALLLVAIVGNYLYRDIMLPLRALAVVILIAAAGGVALLTTKGKATVAFAREARTEVRKVIWPTRQETLHTTLIVAAVTAVMSLILWGLDGILVRLVSFITGLRF
chain 3: MYEALLVVFLIVAIGLVGLIMLQQGKGADMGASFGAGASATLFGSSGSGNFMTRMTALLATLFFIISLVLGNINSNKTNKGSEWENLSAPAKTEQTQPAAPAKPTSDIPN
notes: SecY of the E. coli translocon SecYEG, with C329S and C385S; SecE of the E. coli translocon SecYEG; SecG of the E. coli translocon SecYEG; In the assay the complex stood in a lipid bilayer supported by glass (or mica); also called bacterial translocon; copies: + +
